Experimental findings from article PMC2828957 (Molecular Biology of the Cell, 2010) are described below.

The chains are these.
T1: GST-Sec63C (complete C-terminal domain of human Sec63, residues 210-760, N-terminal GST) (human, UniProt Q9UGP8 210-760)
T1 sequence (looked up): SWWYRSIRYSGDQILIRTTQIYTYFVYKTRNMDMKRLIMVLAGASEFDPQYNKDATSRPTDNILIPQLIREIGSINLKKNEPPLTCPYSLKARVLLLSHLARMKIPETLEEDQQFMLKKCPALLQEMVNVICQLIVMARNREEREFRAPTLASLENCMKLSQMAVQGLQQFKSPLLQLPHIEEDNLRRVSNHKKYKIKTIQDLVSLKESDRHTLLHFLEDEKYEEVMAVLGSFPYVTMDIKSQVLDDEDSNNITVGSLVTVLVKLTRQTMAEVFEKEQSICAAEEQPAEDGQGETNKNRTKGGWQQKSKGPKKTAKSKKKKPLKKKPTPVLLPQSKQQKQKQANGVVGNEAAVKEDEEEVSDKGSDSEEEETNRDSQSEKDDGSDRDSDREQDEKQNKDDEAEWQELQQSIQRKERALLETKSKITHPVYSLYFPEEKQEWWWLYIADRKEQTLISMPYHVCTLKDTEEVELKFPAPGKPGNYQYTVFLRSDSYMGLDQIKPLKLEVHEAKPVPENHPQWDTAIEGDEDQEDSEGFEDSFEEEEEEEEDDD

B1: GST-Sec63C26 (C-terminal 26 amino acid residues of human Sec63, residues 734-760, N-terminal GST) (domain or fragment, UniProt Q9UGP8 734-760, looked up)
chain: EGDEDQEDSEGFEDSFEEEEEEEEDDD
B2: human Sec62N (N-terminal domain of human Sec62, residues 1-195, C-terminal hexa-histidine tag) (domain or fragment, UniProt Q99442 1-195, looked up)
chain: MAERRRHKKRIQEVGEPSKEEKAVAKYLRFNCPTKSTNMMGHRVDYFIASKAVDCLLDSKWAKAKKGEEALFTTRESVVDYCNRLLKKQFFHRALKVMKMKYDKDIKKEKDKGKAESGKEEDKKSKKENIKDEKTKKEKEKKKDGEKEESKKEETPGTPKKKETKKKFKLEPHDDQVFLDGNEVYVWIYDPVHFK
B3: Sec62N-ΔN10-ΔC40 (human Sec62 residues 11-155, C-terminal hexa-histidine tag) (domain or fragment, UniProt Q99442 11-155, looked up)
chain: IQEVGEPSKEEKAVAKYLRFNCPTKSTNMMGHRVDYFIASKAVDCLLDSKWAKAKKGEEALFTTRESVVDYCNRLLKKQFFHRALKVMKMKYDKDIKKEKDKGKAESGKEEDKKSKKENIKDEKTKKEKEKKKDGEKEESKKEET

In assay [1] the target is B3. The experiment in a line: pull-down.
Assay [2] deals with B2. The assay can be described thus: pull-down.
The target in assay [3] is T1, GST-Sec63C (complete C-terminal domain …). The experiment in a line: SPR. On the technique in general: Surface plasmon resonance follows binding to a sensor surface in real time, without labels.
For assay [4] the target is unchanged. The experiment in a line: pull-down.

With B1, the binding result in assay [1] and in assay [2] was “binds” in each case.

What is called Kd is the free concentration of one partner at which half of the binding sites on the other are occupied at equilibrium, for simple one-to-one binding. Read a high Kd as a looser complex. On to B2, for which, in assay [3], binding was characterised by a dissociation constant (Kd) of 4.78 nM.

As for B3, the binding result in assay [4] is reported as “binds”.
